Columns and labels:
[1] = molecular target: T1, tyrosine-specific protein kinase (Homo sapiens, UniProt P00533); experiment: Stimulation of tyrosine-specific protein kinase (phosphorylation of synthetic angiotensinyl peptide substrate); type: biochemical
T1 construct: endogenous in cells; host or cells: human tumor cell membranes (said in the general description, not in the assay sentence)
From the text: A consequence of TGF or EGF binding to the EGF membrane receptors is the stimulation of phosphorylation of tyrosine residues of synthetic peptides or endogenous substrates (Pike et al. (1982) J. Biol. Chem. 257, pp. 14628-14631).

NRK cells = experiment: Soft agar transforming assay with fetal bovine serum and TGF-beta; type: cell-based, rat; conditions: in the absence of TGF-beta
From the text: Synthetic rTGF prepared in accordance with this Example was compared with natural rTGF in three assays for biological properties of the putative transforming growth factor.

[2] = molecular target: T2, EGF receptor sites on A431 human carcinoma cells (Homo sapiens, UniProt P00533); experiment: 125I-EGF radioreceptor (binding competition) assay on formalin-fixed A431 cells
T2 construct: Human epidermoid A431 cells have in excess of 10⁶ EGF receptors per cell; endogenous in cells; host or cells: A431 human epidermoid carcinoma cells (formalin-fixed in A1)
Protocol: Purified EGF was labeled with Na¹²⁵I by a modification of the chloramine-T method as described in DeLarco et al. (1978) Proc. Natl. Acad. Sci. USA 75, pp. 4001-4005. The ¹²⁵I-EGF binding assay was performed on subconfluent monolayers of formalin-fixed A431 human carcinoma cells as previously described (in DeLarco et al. (1980) J. of Biol. Chem. 255, pp. 3685-3690). The fixed cells were washed twice with 0.5 ml of binding buffer (Dulbecco's modified Eagle's medium containing 1 mg/ml of bovine serum albumin and 50 mM 2-[bis(2-hydroxyethyl)amino]ethanesulfonic acid, pH 6.8). Competitions were initiated by the addition of 0.2 ml of binding buffer containing 0.4 ng of ¹²⁵I-EGF with or without potential inhibitor. After incubation for 1 h at 22°C, the specifically bound ¹²⁵I-EGF was determined. The TGF content was expressed by its degree of inhibition of the binding of ¹²⁵I-EGF to the EGF receptor. One EGF-competing activity unit is defined as the amount of protein that inhibits the binding of ¹²⁵I-EGF to its receptor by 50%.
TGF was quantitated in a radioreceptor assay based on receptor crossreactivity with mouse submaxillary gland epidermal growth factor (mEGF). […]

[3] = after oxidation and regeneration, prior to purification

synthetic rTGF: rat TGF made by stepwise solid-phase chemical synthesis, oxidized and purified to homogeneity
EC50 ([1]; read-out: half maximal activity, stimulation of phosphorylation of the synthetic angiotensinyl peptide substrate): 0.3 nM
transformation of NRK cells in culture (NRK cells): does not produce such an effect
IC50 ([2]; A431 human carcinoma cells, read-out: concentration required for 50% inhibition of 125I-EGF binding): 4.1 nM

regenerated, crude rTGF-I: crude synthetic rTGF oxidized and regenerated by the mixed disulfide method, prior to any purification
tyrosine-specific protein kinase activity when compared to the natural rTGF-I [1, 3]: 40-50%
EGF-radioreceptor activity when compared to the natural rTGF-I [2, 3]: 40-50%

From patent EP0132021B1, “TGF polypeptides, antigenic oligopeptides derived therefrom and antibodies produced therefrom” (Todaro, George Joseph, priority 1983, dated 1985)
